In publication PMC7160132 one finds Kd data, which are given here for three substances.

The test system of the data set is XPO5-His6 (Exportin-5) (Homo sapiens). The experiment in a line: EMSA. The following applies: no RanGTP, 20 mM HEPES pH 7.3, 150 mM K acetate, 2 mM Mg acetate, 0.05% NP-40, 7 mM 2-mercaptoethanol, 1.5 ug/mL poly dIdC, 0.2% BSA, 25 C 45 min, then 0.3 ug heparin …. On the technique in general: In EMSA bound probe runs differently from free probe, usually more slowly.

A word on the Kd: it is the concentration at which binding is half-saturated. On to pri-mir-15b, for which the Kd (single shifted complex) was determined as 9.57 nM.

pri-mir-19a: for the setting “two complexes with increasing XPO5”, the Kd worked out at 14.6 nM.

Take vtRNA1-1: under “1 nM RNA, super-shift at high XPO5”, the Kd was found to be 36.3 nM.
